# Experimental data taken from FireProtDB (doi:10.1046/j.1432-1327.1999.00491.x).
# “And” between values parts separate entries of the source, which are not always exact repeats. Equal values may be shown once.
# B1: Regulatory protein cro wild type, P03036 (protein)
# chain: MQTLSERLKKRRIALKMTQTELATKAGVKQQSIQLIEAGVTKRPRFLFEIAMALNCDPVWLQYGTKRGKAA
# Details: Enterobacteria phage 434, Thermal, DSC, reversible: yes, whole UniProt chain shown; for unfolding free energy: 25 °C
# [1] = pH 2, glycine 20 mM, NaCl 200 mM
# [2] = pH 3, glycine 20 mM, NaCl 200 mM
# [3] = pH 4, Sodium acetate 20 mM, NaCl 200 mM
# [4] = pH 4.5, Sodium acetate 20 mM, NaCl 200 mM
protein,measurement,setting,value
B1,unfolding free energy,[1],1.17 kcal/mol
same,unfolding free energy,"pH 2, glycine 20 mM",0.22 kcal/mol
same,Tm,[1],38.3 °C and 39.4 °C and 35.6 °C
same,unfolding enthalpy (calorimetric),[1],33.5 kcal/mol and 33.9 kcal/mol and 34.2 kcal/mol
same,unfolding enthalpy (calorimetric),"pH 2, glycine 20 mM",24.1 kcal/mol and 27.5 kcal/mol and 22.2 kcal/mol
same,unfolding free energy,[2],2.27 kcal/mol
same,unfolding free energy,"pH 3, glycine 20 mM",2.58 kcal/mol
same,unfolding enthalpy (calorimetric),[2],42.1 kcal/mol and 40.4 kcal/mol and 39 kcal/mol
same,unfolding enthalpy (calorimetric),"pH 3, glycine 20 mM",34.4 kcal/mol and 32 kcal/mol
same,unfolding free energy,[3],3.78 kcal/mol
same,unfolding free energy,"pH 4, Sodium acetate 20 mM",3.59 kcal/mol
same,Tm,[3],59.8 °C and 57.8 °C and 57.2 °C
same,unfolding enthalpy (calorimetric),[3],51.1 kcal/mol and 50 kcal/mol and 49.7 kcal/mol
same,Tm,"pH 4, Sodium acetate 20 mM",58.2 °C and 53.6 °C
same,unfolding enthalpy (calorimetric),"pH 4, Sodium acetate 20 mM",50 kcal/mol and 45.6 kcal/mol and 44.2 kcal/mol
same,unfolding free energy,[4],4.33 kcal/mol
same,unfolding free energy,"pH 4.5, Sodium acetate 20 mM",4.4 kcal/mol
same,Tm,[4],63.7 °C and 63.5 °C and 60.2 °C
same,unfolding enthalpy (calorimetric),[4],54 kcal/mol and 54.7 kcal/mol and 52.1 kcal/mol
same,unfolding enthalpy (calorimetric),"pH 4.5, Sodium acetate 20 mM",53.1 kcal/mol and 46.4 kcal/mol
same,unfolding free energy,"pH 7, PIPES 20 mM, NaCl 200 mM",5.33 kcal/mol
same,unfolding free energy,"pH 7, PIPES 20 mM",5.35 kcal/mol
same,Tm,"pH 7, PIPES 20 mM, NaCl 200 mM",70.7 °C and 66.6 °C and 67.6 °C
same,unfolding enthalpy (calorimetric),"pH 7, PIPES 20 mM, NaCl 200 mM",58.6 kcal/mol and 57.6 kcal/mol and 58.1 kcal/mol
same,Tm,"pH 7, PIPES 20 mM",70.7 °C and 67.2 °C
same,unfolding enthalpy (calorimetric),"pH 7, PIPES 20 mM",59 kcal/mol and 54 kcal/mol
